Biological target: T1, recombinant human CD14 (human, UniProt P08571 20-345)
T1 construct: CD14, human, recombinant soluble protein from CHO cells; Check this against the vendor data sheet; source: bought: R&D Systems (cat no 383-CD-050/CF), derived from CHO cells
T1 sequence (looked up): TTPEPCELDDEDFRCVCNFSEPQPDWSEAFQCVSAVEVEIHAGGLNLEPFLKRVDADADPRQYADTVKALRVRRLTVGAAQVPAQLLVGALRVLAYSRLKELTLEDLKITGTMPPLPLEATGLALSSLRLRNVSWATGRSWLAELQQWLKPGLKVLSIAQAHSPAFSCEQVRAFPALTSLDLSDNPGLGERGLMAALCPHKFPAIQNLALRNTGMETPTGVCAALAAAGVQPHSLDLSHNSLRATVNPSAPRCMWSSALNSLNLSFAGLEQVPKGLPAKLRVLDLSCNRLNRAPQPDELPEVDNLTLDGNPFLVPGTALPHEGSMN
Experiment: SPR; Biacore 3000; S100A8 and S100A9 immobilised in separate flow cells on a CM5 chip by amine coupling, to the same level; CD14 injected at 50 to 800 nM for 2 min at 30 ul/min in HBS-P (10 mM HEPES, 0.15 M NaCl, pH 7.4, 0.005% P20) with 1 mM Ca2+ and 20 uM Zn2+; regeneration with 3 mM EDTA; sensorgrams fit to a 1:1 model
Settings: both partners purified

B1: recombinant human S100A9 (natural protein, UniProt P06702 1-114, looked up)
chain: MTCKMSQLERNIETIINTFHQYSVKLGHPDTLNQGEFKELVRKDLQNFLKKENKNEKVIEHIMEDLDTNADKQLSFEEFIMLMARLTWASHEKMHEGDEGPGHHHKPGLGEGTP
notes: S100A9, human, recombinant; The discussion says the recombinant huS100A9 was produced in E. coli; Amine-coupled to the CM5 chip in the SPR experiment; also called huS100A9; source: recombinant, produced at Active Biotech AB, Lund, Sweden
Kd: 100 to 200 nM

— paper PMC4881898, “CD14 Is a Co-Receptor for TLR4 in the S100A9-Induced Pro-Inflammatory Response in Monocytes” (PLoS ONE, 2016)
